The text below walks through data of patent US20150274841A1 (DYAX, published 2015).

The chains are these.
B1: M0200-A10 (Fab, V domains shown)
VH: EVQLLESGGGLVQPGGSLRLSCAASGFTFSHYIMMWVRQAPGKGLEWVSGIYSSGGITVYADSVKGRFTISRDNSKNTLYLQMNSLRAEDTAVYYCAYRRTGVPRRDSFDIWGQGTMVTVSS
VL: DIQMTQSPSTLSASVGDRVTITCRASQSISSWLAWYQQKPGKAPNLLIYKASTLESGVPSRFSGSGSGTEFTLTISSLQPDDFATYYCQQYNTYWTFGQGTKVEIK
notes: HC CDR3 variant of M0162-A04, tested as Fab
B2: M0202-B04 (Fab, V domains shown)
VH: EVQLLESGGGLVQPGGSLRLSCAASGFTFSHYIMMWVRQAPGKGLEWVSGIYSSGGITVYADSVKGRFTISRDNSKNTLYLQMNSLRAEDTAVYYCAYRRSGVPRRDAFDIWGQGTMVTVSS
VL: DIQMTQSPSTLSASVGDRVTITCRASQSISSWLAWYQQKPGKAPNLLIYKASTLESGVPSRFSGSGSGTEFTLTISSLQPDDFATYYCQQYNTYWTFGQGTKVEIK
B3: M0202-H03 (Fab, V domains shown)
VH: EVQLLESGGGLVQPGGSLRLSCAASGFTFSHYIMMWVRQAPGKGLEWVSGIYSSGGITVYADSVKGRFTISRDNSKNTLYLQMNSLRAEDTAVYYCAYRRTGVPRWDDFDIWGQGTMVTVSS
VL: DIQMTQSPSTLSASVGDRVTITCRASQSISSWLAWYQQKPGKAPNLLIYKASTLESGVPSRFSGSGSGTEFTLTISSLQPDDFATYYCQQYNTYWTFGQGTKVEIK
B4: M0201-H06 (Fab, V domains shown)
VH: EVQLLESGGGLVQPGGSLRLSCAASGFTFSHYIMMWVRQAPGKGLEWVSGIYSSGGITVYADSVKGRFTISRDNSKNTLYLQMNSLRAEDTAVYYCAYRRTGVPRRDAFDIWGQGTMVTVSS
VL: DIQMTQSPSTLSASVGDRVTITCRASQSISSWLAWYQQKPGKAPNLLIYKASTLESGVPSRFSGSGSGTEFTLTISSLQPDDFATYYCQQYNTYWTFGQGTKVEIK
B5: M0202-C02 (Fab, V domains shown)
VH: EVQLLESGGGLVQPGGSLRLSCAASGFTFSHYIMMWVRQAPGKGLEWVSGIYSSGGITVYADSVKGRFTISRDNSKNTLYLQMNSLRAEDTAVYYCAYRRPGVPRRDAFDIWGQGTMVTVSS
VL: DIQMTQSPSTLSASVGDRVTITCRASQSISSWLAWYQQKPGKAPNLLIYKASTLESGVPSRFSGSGSGTEFTLTISSLQPDDFATYYCQQYNTYWTFGQGTKVEIK
B6: M0201-A07 (Fab, V domains shown)
VH: EVQLLESGGGLVQPGGSLRLSCAASGFTFSHYIMMWVRQAPGKGLEWVSGIYSSGGITVYADSVKGRFTISRDNSKNTLYLQMNSLRAEDTAVYYCAYRRTGVPRRDEFDIWGQGTMVTVSS
VL: DIQMTQSPSTLSASVGDRVTITCRASQSISSWLAWYQQKPGKAPNLLIYKASTLESGVPSRFSGSGSGTEFTLTISSLQPDDFATYYCQQYNTYWTFGQGTKVEIK
B7: M0200-E11 (Fab, V domains shown)
VH: EVQLLESGGGLVQPGGSLRLSCAASGFTFSHYIMMWVRQAPGKGLEWVSGIYSSGGITVYADSVKGRFTISRDNSKNTLYLQMNSLRAEDTAVYYCAYRRTGVPRRDAFDNWGQGTMVTVSS
VL: DIQMTQSPSTLSASVGDRVTITCRASQSISSWLAWYQQKPGKAPNLLIYKASTLESGVPSRFSGSGSGTEFTLTISSLQPDDFATYYCQQYNTYWTFGQGTKVEIK
notes: as for B1
B8: M0201-A06 (Fab, V domains shown)
VH: EVQLLESGGGLVQPGGSLRLSCAASGFTFSHYIMMWVRQAPGKGLEWVSGIYSSGGITVYADSVKGRFTISRDNSKNTLYLQMNSLRAEDTAVYYCAYRRTGIPRRDVFDIWGQGTMVTVSS
VL: DIQMTQSPSTLSASVGDRVTITCRASQSISSWLAWYQQKPGKAPNLLIYKASTLESGVPSRFSGSGSGTEFTLTISSLQPDDFATYYCQQYNTYWTFGQGTKVEIK
notes: as for B1
B9: M0202-G03 (Fab, V domains shown)
VH: EVQLLESGGGLVQPGGSLRLSCAASGFTFSHYIMMWVRQAPGKGLEWVSGIYSSGGITVYADSVKGRFTISRDNSKNTLYLQMNSLRAEDTAVYYCAYRRTGVPRRDSFEIWGQGTMVTVSS
VL: DIQMTQSPSTLSASVGDRVTITCRASQSISSWLAWYQQKPGKAPNLLIYKASTLESGVPSRFSGSGSGTEFTLTISSLQPDDFATYYCQQYNTYWTFGQGTKVEIK
notes: as for B1
B10: M0202-Al2 (Fab, V domains shown)
VH: EVQLLESGGGLVQPGGSLRLSCAASGFTFSHYIMMWVRQAPGKGLEWVSGIYSSGGITVYADSVKGRFTISRDNSKNTLYLQMNSLRAEDTAVYYCAYQRTGVPRRDSFNIWGQGTMVTVSS
VL: DIQMTQSPSTLSASVGDRVTITCRASQSISSWLAWYQQKPGKAPNLLIYKASTLESGVPSRFSGSGSGTEFTLTISSLQPDDFATYYCQQYNTYWTFGQGTKVEIK
notes: HC CDR3 variant of M0162-A04, tested as Fab; also called M0202-A12 (probable reading)
B11: M0200-H07 (Fab, V domains shown)
VH: EVQLLESGGGLVQPGGSLRLSCAASGFTFSHYIMMWVRQAPGKGLEWVSGIYSSGGITVYADSVKGRFTISRDNSKNTLYLQMNSLRAEDTAVYYCAYRRTGVPRRNAFDNWGQGTMVTVSS
VL: DIQMTQSPSTLSASVGDRVTITCRASQSISSWLAWYQQKPGKAPNLLIYKASTLESGVPSRFSGSGSGTEFTLTISSLQPDDFATYYCQQYNTYWTFGQGTKVEIK
notes: as for B1
B12: M0202-F06 (Fab, V domains shown)
VH: EVQLLESGGGLVQPGGSLRLSCAASGFTFSHYIMMWVRQAPGKGLEWVSGIYSSGGITVYADSVKGRFTISRDNSKNTLYLQMNSLRAEDTAVYYCAYRRTGVPRWDAFDIWGQGTMVTVSS
VL: DIQMTQSPSTLSASVGDRVTITCRASQSISSWLAWYQQKPGKAPNLLIYKASTLESGVPSRFSGSGSGTEFTLTISSLQPDDFATYYCQQYNTYWTFGQGTKVEIK
notes: as for B1
B13: M0202-A01 (Fab, V domains shown)
VH: EVQLLESGGGLVQPGGSLRLSCAASGFTFSHYIMMWVRQAPGKGLEWVSGIYSSGGITVYADSVKGRFTISRDNSKNTLYLQMNSLRAEDTAVYYCAYRRIGVPRRDAFDIWGQGTMVTVSS
VL: DIQMTQSPSTLSASVGDRVTITCRASQSISSWLAWYQQKPGKAPNLLIYKASTLESGVPSRFSGSGSGTEFTLTISSLQPDDFATYYCQQYNTYWTFGQGTKVEIK
notes: as for B1
B14: M0202-H05 (Fab, V domains shown)
VH: EVQLLESGGGLVQPGGSLRLSCAASGFTFSHYIMMWVRQAPGKGLEWVSGIYSSGGITVYADSVKGRFTISRDNSKNTLYLQMNSLRAEDTAVYYCAYRRTGVPRRDVFDIWGQGTMVTVSS
VL: DIQMTQSPSTLSASVGDRVTITCRASQSISSWLAWYQQKPGKAPNLLIYKASTLESGVPSRFSGSGSGTEFTLTISSLQPDDFATYYCQQYNTYWTFGQGTKVEIK
notes: as for B1
B15: M0201-H08 (Fab, V domains shown)
VH: EVQLLESGGGLVQPGGSLRLSCAASGFTFSHYIMMWVRQAPGKGLEWVSGIYSSGGITVYADSVKGRFTISRDNSKNTLYLQMNSLRAEDTAVYYCAYRRTGVPRRDALDNWGQGTMVTVSS
VL: DIQMTQSPSTLSASVGDRVTITCRASQSISSWLAWYQQKPGKAPNLLIYKASTLESGVPSRFSGSGSGTEFTLTISSLQPDDFATYYCQQYNTYWTFGQGTKVEIK
notes: as for B1

In the assay the target is T1, human plasma kallikrein (PKal) (human, UniProt P03952 20-638).
T1 construct: Active PKal is cleaved at the marked R/I site into two disulfide-linked chains; also called human Pkal; active PKal
T1 sequence (P03952 20-638 limits assumed): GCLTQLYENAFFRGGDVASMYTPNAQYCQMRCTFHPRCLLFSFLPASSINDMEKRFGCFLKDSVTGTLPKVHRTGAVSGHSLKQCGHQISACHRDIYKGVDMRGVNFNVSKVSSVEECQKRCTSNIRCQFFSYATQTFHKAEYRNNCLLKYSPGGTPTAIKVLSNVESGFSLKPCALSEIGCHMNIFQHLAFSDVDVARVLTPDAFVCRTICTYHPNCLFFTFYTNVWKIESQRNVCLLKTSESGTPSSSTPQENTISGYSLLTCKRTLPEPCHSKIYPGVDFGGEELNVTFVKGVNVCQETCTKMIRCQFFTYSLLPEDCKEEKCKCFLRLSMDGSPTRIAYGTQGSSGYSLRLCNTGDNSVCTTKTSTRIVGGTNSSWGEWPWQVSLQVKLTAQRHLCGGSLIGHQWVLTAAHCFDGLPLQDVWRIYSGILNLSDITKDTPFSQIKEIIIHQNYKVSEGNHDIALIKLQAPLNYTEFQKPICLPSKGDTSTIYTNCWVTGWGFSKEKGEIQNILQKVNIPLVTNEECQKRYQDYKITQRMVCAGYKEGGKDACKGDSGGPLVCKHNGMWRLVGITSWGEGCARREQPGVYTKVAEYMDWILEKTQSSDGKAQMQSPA
Description: Ki,app; Fab inhibition of PKal cleavage of a substrate peptide, Morrison fit. Here is the method: Briefly, PKal and a Fab at various concentrations are incubated together for 1 hour at 30° C. A substrate peptide (cleavable by PKal) is then added to this PKal-Fab mixture. The rate of substrate peptide cleavage/proteolysis is then measured, and plotted against the concentrations of the Fab. This plot is then fit to the Morrison equation, which calculates the K_{i,app} value. The results thus obtained are shown in FIGS. 5A-5D and Table 3 below: […]
Molecule B1 yielded a Ki of 0.25 nM.

As for B2, the Ki worked out at 0.2 nM.

B3 yielded a Ki of 0.1 nM.

With B4, the Ki turned out to be 0.6 nM.

As for B5, the Ki is 0.6 nM.

In turn, B6 gave a Ki of 0.1 nM.

The molecule B7 yielded a Ki of 0.4 nM.

B8: the Ki is 3.8 nM.

B9: the Ki came to 0.4 nM.

Molecule B10 registered a Ki of 0.1 nM.

With B11, the Ki is 0.4 nM.

In the case of B12, the Ki is 0.33 nM.

In the case of B13, the Ki came to 0.3 nM.

As for B14, the Ki stood at 0.26 nM.

As to B15, the Ki was 0.8 nM.
